The values that follow are results of earlier work, collected in publication PMC6963985.

What is called Kd is the concentration at which binding is half-saturated.

This data set concerns the target CTLA-4 (Homo sapiens) (UniProt P16410).
UniProt P16410, sequence (P16410 36-161): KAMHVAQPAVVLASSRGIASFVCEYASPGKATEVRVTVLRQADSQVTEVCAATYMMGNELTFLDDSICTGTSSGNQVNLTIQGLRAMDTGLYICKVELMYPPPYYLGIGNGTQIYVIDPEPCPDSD

Consider Tremelimumab, for which the Kd is 5.9 nM.
